Data on 53 variants can be found in the Human Domainome abundance scans (Beltran et al. 2025).

The labels stand for the following.
B1: Histone-lysine N-methyltransferase SETD2, residues 2382 to 2430; numbered along this chain, Q9BYW2 (parent)
chain: SPPKPKTIVLPPNWKTARDPEGKIYYYHVITRQTQWDPPTWESPGDDAS

± gives the uncertainty stated by the source.

The variants in the data set derive from B1. The data set can be described thus: abundance fitness (aPCA) (normalised: wild type 0, dead -1); higher = more abundant; growth selection in yeast, the domain comes from the species named. The conditions noted are these: Homo sapiens.
As for SPPKPKTIVLPPNWKTARDPEGKIYYYHVITRQTQWDPPTWEEPGDDAS [S43E], the abundance fitness worked out at 0.193 ± 0.056.

For SPPKPKTIVLPPNWKTARDPEGKIYYYHVITRQTQWDPPTWEDPGDDAS [S43D], the abundance fitness is 0.078 ± 0.075.

As to SPPKPKTIVLPPNWKTARDPEGKIYYYHVITRQTQWDPPTWECPGDDAS [S43C], the abundance fitness is -0.471 ± 0.11.

With SPPKPKTIVLPPNWKTARDPEGKIYYYHVITRQTQWDPPTWEHPGDDAS [S43H], the abundance fitness was -0.237 ± 0.11.

On to SPPKPKTIVLPPNWKTARDPEGKIYYYHVITRQTQWDPPTWEQPGDDAS [S43Q], for which the abundance fitness was 0.091 ± 0.08.

Turning to SPPKPKTIVLPPNWKTARDPEGKIYYYHVITRQTQWDPPTWEPPGDDAS [S43P], the abundance fitness is -0.321 ± 0.094.

SPPKPKTIVLPPNWKTARDPEGKIYYYHVITRQTQWDPPTWEMPGDDAS [S43M]: the abundance fitness is -0.102 ± 0.076.

On to SPPKPKTIVLPPNWKTARDPEGKIYYYHVITRQTQWDPPTWELPGDDAS [S43L], for which the abundance fitness was -0.064 ± 0.042.

On to SPPKPKTIVLPPNWKTARDPEGKIYYYHVITRQTQWDPPTWEIPGDDAS [S43I], for which the abundance fitness was -0.095 ± 0.041.

Regarding SPPKPKTIVLPPNWKTARDPEGKIYYYHVITRQTQWDPPTWEVPGDDAS [S43V], the abundance fitness was -0.045 ± 0.055.

In the case of SPPKPKTIVLPPNWKTARDPEGKIYYYHVITRQTQWDPPTWEGPGDDAS [S43G], the abundance fitness was -0.15 ± 0.05.

SPPKPKTIVLPPNWKTARDPEGKIYYYHVITRQTQWDPPTWEWPGDDAS [S43W]: the abundance fitness is -0.23 ± 0.088.

As for SPPKPKTIVLPPNWKTARDPEGKIYYYHVITRQTQWDPPTWEAPGDDAS [S43A], the abundance fitness was -0.048 ± 0.041.

For the variant SPPKPKTIVLPPNWKTARDPEGKIYYYHVITRQTQWDPPTWERPGDDAS [S43R], the abundance fitness was -0.11 ± 0.042.

For the variant SPPKPKTIVLPPNWKTARDPEGKIYYYHVITRQTQWDPPTWEYPGDDAS [S43Y], the abundance fitness was -0.263 ± 0.097.

In the case of SPPKPKTIVLPPNWKTARDPEGKIYYYHVITRQTQWDPPTWEKPGDDAS [S43K], the abundance fitness amounted to 0.145 ± 0.042.

Turning to SPPKPKTIVLPPNWKTARDPEGKIYYYHVITRQTQWDPPTWENPGDDAS [S43N], the abundance fitness is -0.369 ± 0.13.

SPPKPKTIVLPPNWKTARDPEGKIYYYHVITRQTQWDPPTWETPGDDAS [S43T]: the abundance fitness was -0.061 ± 0.082.

As for SPPKPKTIVLPPNWKTARDPEGKIYYYHVITRQTQWDPPTWEFPGDDAS [S43F], the abundance fitness is -0.375 ± 0.071.

Turning to SPPKPKTIVLPPNWKTARDPEGKIYYYHVITRQTQWDPPTWESWGDDAS [P44W], the abundance fitness is -0.283 ± 0.072.

For SPPKPKTIVLPPNWKTARDPEGKIYYYHVITRQTQWDPPTWESVGDDAS [P44V], the abundance fitness is -0.263 ± 0.042.

For SPPKPKTIVLPPNWKTARDPEGKIYYYHVITRQTQWDPPTWESFGDDAS [P44F], the abundance fitness was -0.654 ± 0.25.

As for SPPKPKTIVLPPNWKTARDPEGKIYYYHVITRQTQWDPPTWESNGDDAS [P44N], the abundance fitness is -0.196 ± 0.1.

For SPPKPKTIVLPPNWKTARDPEGKIYYYHVITRQTQWDPPTWESGGDDAS [P44G], the abundance fitness is -0.128 ± 0.047.

Consider SPPKPKTIVLPPNWKTARDPEGKIYYYHVITRQTQWDPPTWESHGDDAS [P44H], for which the abundance fitness is 0.036 ± 0.097.

For the variant SPPKPKTIVLPPNWKTARDPEGKIYYYHVITRQTQWDPPTWESRGDDAS [P44R], the abundance fitness is -0.031 ± 0.054.

In the case of SPPKPKTIVLPPNWKTARDPEGKIYYYHVITRQTQWDPPTWESCGDDAS [P44C], the abundance fitness was -0.448 ± 0.13.

As for SPPKPKTIVLPPNWKTARDPEGKIYYYHVITRQTQWDPPTWESTGDDAS [P44T], the abundance fitness is -0.103 ± 0.083.

As for SPPKPKTIVLPPNWKTARDPEGKIYYYHVITRQTQWDPPTWESMGDDAS [P44M], the abundance fitness is -0.016 ± 0.038.

Turning to SPPKPKTIVLPPNWKTARDPEGKIYYYHVITRQTQWDPPTWESEGDDAS [P44E], the abundance fitness is -0.096 ± 0.075.

As for SPPKPKTIVLPPNWKTARDPEGKIYYYHVITRQTQWDPPTWESQGDDAS [P44Q], the abundance fitness is -0.067 ± 0.087.

In the case of SPPKPKTIVLPPNWKTARDPEGKIYYYHVITRQTQWDPPTWESKGDDAS [P44K], the abundance fitness was -0.128 ± 0.1.

Take SPPKPKTIVLPPNWKTARDPEGKIYYYHVITRQTQWDPPTWESSGDDAS [P44S]: the abundance fitness is -0.166 ± 0.054.

In the case of SPPKPKTIVLPPNWKTARDPEGKIYYYHVITRQTQWDPPTWESDGDDAS [P44D], the abundance fitness was -0.108 ± 0.087.

With SPPKPKTIVLPPNWKTARDPEGKIYYYHVITRQTQWDPPTWESAGDDAS [P44A], the abundance fitness was -0.115 ± 0.071.

For SPPKPKTIVLPPNWKTARDPEGKIYYYHVITRQTQWDPPTWESIGDDAS [P44I], the abundance fitness was -0.452 ± 0.18.

As to SPPKPKTIVLPPNWKTARDPEGKIYYYHVITRQTQWDPPTYESPGDDAS [W41Y], the abundance fitness stood at 0.338 ± 0.084.

On to SPPKPKTIVLPPNWKTARDPEGKIYYYHVITRQTQWDPPTFESPGDDAS [W41F], for which the abundance fitness was 0.334 ± 0.092.

In the case of SPPKPKTIVLPPNWKTARDPEGKIYYYHVITRQTQWDPPTIESPGDDAS [W41I], the abundance fitness was determined as 0.05 ± 0.069.

SPPKPKTIVLPPNWKTARDPEGKIYYYHVITRQTQWDPPTSESPGDDAS [W41S]: the abundance fitness was 0.195 ± 0.042.

Turning to SPPKPKTIVLPPNWKTARDPEGKIYYYHVITRQTQWDPPTRESPGDDAS [W41R], the abundance fitness came out at 0.091 ± 0.036.

In the case of SPPKPKTIVLPPNWKTARDPEGKIYYYHVITRQTQWDPPTLESPGDDAS [W41L], the abundance fitness turned out to be 0.078 ± 0.033.

With SPPKPKTIVLPPNWKTARDPEGKIYYYHVITRQTQWDPPTPESPGDDAS [W41P], the abundance fitness is -0.058 ± 0.095.

As to SPPKPKTIVLPPNWKTARDPEGKIYYYHVITRQTQWDPPTGESPGDDAS [W41G], the abundance fitness is 0.034 ± 0.051.

Consider SPPKPKTIVLPPNWKTARDPEGKIYYYHVITRQTQWDPPTEESPGDDAS [W41E], for which the abundance fitness came to 0.166 ± 0.046.

Turning to SPPKPKTIVLPPNWKTARDPEGKIYYYHVITRQTQWDPPTAESPGDDAS [W41A], the abundance fitness was found to be 0.07 ± 0.058.

Take SPPKPKTIVLPPNWKTARDPEGKIYYYHVITRQTQWDPPTCESPGDDAS [W41C]: the abundance fitness was 0.04 ± 0.045.

With SPPKPKTIVLPPNWKTARDPEGKIYYYHVITRQTQWDPPTQESPGDDAS [W41Q], the abundance fitness is 0.249 ± 0.04.

Take SPPKPKTIVLPPNWKTARDPEGKIYYYHVITRQTQWDPPTKESPGDDAS [W41K]: the abundance fitness is 0.165 ± 0.041.

For SPPKPKTIVLPPNWKTARDPEGKIYYYHVITRQTQWDPPTHESPGDDAS [W41H], the abundance fitness came out at 0.117 ± 0.081.

As to SPPKPKTIVLPPNWKTARDPEGKIYYYHVITRQTQWDPPTVESPGDDAS [W41V], the abundance fitness is 0.077 ± 0.035.

For the variant SPPKPKTIVLPPNWKTARDPEGKIYYYHVITRQTQWDPPTDESPGDDAS [W41D], the abundance fitness was determined as 0.06 ± 0.1.

Take SPPKPKTIVLPPNWKTARDPEGKIYYYHVITRQTQWDPPTMESPGDDAS [W41M]: the abundance fitness was 0.16 ± 0.033.
